Test results from patent publication US20230406927A1 (REGENTS OF THE UNIVERSITY OF MINNESOTA, published 2023).

How the values were obtained:
[1] = molecular target: T1, CD3ε receptor on the surface of T cells (human, UniProt P07766 23-207); assay: dose-dependent titration by flow cytometry on T cells isolated from healthy donor blood; apparent KD
T1 construct: whole, on cells; The target stood on primary T cells, where CD3ε is part of the TCR/CD3 complex; also called human CD3ε; CD3 epsilon chain
T1 sequence (P07766 23-207): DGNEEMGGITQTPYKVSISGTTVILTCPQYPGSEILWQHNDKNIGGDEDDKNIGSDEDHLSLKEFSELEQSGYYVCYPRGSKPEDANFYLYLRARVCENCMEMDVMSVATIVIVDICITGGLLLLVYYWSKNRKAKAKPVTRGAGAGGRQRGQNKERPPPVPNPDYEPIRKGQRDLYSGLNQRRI
Method: (§1) The apparent affinity of the fusion proteins was determined using flow cytometry with T cells isolated from healthy donor blood.

[2] = molecular target: T1, CD3ε receptor on the surface of T cells; assay: ratio of apparent KD values from the flow cytometry titration on T cells; reference is unmasked anti-CD3-1DD
Method: as §1

Row | Binder | Kd [1] [nM] | fold reduction of binding affinity against anti-CD3-1DD [2] [fold]
1 | hHINT1-anti-CD3-1DD fusion protein (VHH, Masked form; also called hHINT1-αCD3-1DD; HINT1-αCD3-1DD) MGHHHHHHMADEIAKAQVARPGGDTIFGKIIRKEIPAKIIFEDDRSLAFHDISPQAPTHFLVIPKKHISQISVAEDDDESLLGHLMIVGKKSAADLGLNKGYRMEVNEGSDGGQSVYHVHLHVLGGRQMHWPPGGGSGGGPLGVRGSGGELEVQLLEEVQLVESGGGLVQPGGSLRLSCAASGFTFDDYGMSWVRQAPGKWLEWVSDISWNGGSTYYADSVKGRFTISRDNAENTLYLQMNSLKPDDTAVYYCAKMGEGGWGANDYWGQGTQVTVSSGGGASGGGGSGGGGSGISLIAALAVDRVIGMENAMPWNLPADLAWFKRNTLNKPVIMGRHTWESIGRPLPGRKNIILSSQPGTDDRVTWVKSVDEAIAAAGDVPEIMVIGGGRVYEQFLPKAQKLYLTHIDAEVEGDTHFPDYEPDDWESVFSEFHDADAQNSHSYSFEILERRGGISLIAALAVDRVIGMENAMPWNLPADLAWFKRNTLNKPVIMGRHTWESIGRPLPGRKNIILSSQPGTDDRVTWVKSVDEAIAAAGDVPEIMVIGGGRVYEQFLPKAQKLYLTHIDAEVEGDTHFPDYEPDDWESVFSEFHDADAQNSHSYSFEILERRGGGLKDYKDDDDK | > 4000 | ~40
2 | anti-CD3-1DD fusion protein (VHH, Anti-CD3 nanobody fused to an E. coli DHFR dimer (1DD); also called αCD3-1DD; anti-CD3-DHFR2 fusion protein) MGHHHHHHEVQLLEEVQLVESGGGLVQPGGSLRLSCAASGFTFDDYGMSWVRQAPGKWLEWVSDISWNGGSTYYADSVKGRFTISRDNAENTLYLQMNSLKPDDTAVYYCAKMGEGGWGANDYWGQGTQVTVSSGGGASGGGGSGGGGSGISLIAALAVDRVIGMENAMPWNLPADLAWFKRNTLNKPVIMGRHTWESIGRPLPGRKNIILSSQPGTDDRVTWVKSVDEAIAAAGDVPEIMVIGGGRVYEQFLPKAQKLYLTHIDAEVEGDTHFPDYEPDDWESVFSEFHDADAQNSHSYSFEILERRGGISLIAALAVDRVIGMENAMPWNLPADLAWFKRNTLNKPVIMGRHTWESIGRPLPGRKNIILSSQPGTDDRVTWVKSVDEAIAAAGDVPEIMVIGGGRVYEQFLPKAQKLYLTHIDAEVEGDTHFPDYEPDDWESVFSEFHDADAQNSHSYSFEILERRGGGLKDYKDDDDK | 100 | –
